Test results from the Immune Epitope Database (IEDB).

Experiments:
HLA-B*53:01 = assay: IEDB peptide-MHC binding, purified MHC/competitive/fluorescence; ≥ and ≤ were set here for values at or beyond the usual limits of such assays; conditions: source organism: Human herpesvirus 4 type 2
HLA-A*24:02 = assay: IEDB peptide-MHC binding, purified MHC/competitive/fluorescence; filed as Kd, often an IC50 or EC50 that approximates it; ≥ and ≤ were set here for values at or beyond the usual limits of such assays
HLA-C*14:02 = assay: IEDB peptide-MHC binding, purified MHC/direct/fluorescence; filed as Kd, often an IC50 or EC50 that approximates it; ≥ and ≤ were set here for values at or beyond the usual limits of such assays
HLA-C*15:02 = assay: as above; conditions: source organism: Cryptosporidium parvum Iowa II
HLA-C*06:02 = assay: as above; conditions: source organism: Cryptosporidium parvum Iowa II
HLA-A*23:01 = assay: IEDB peptide-MHC binding, purified MHC/competitive/fluorescence; filed as Kd, often an IC50 or EC50 that approximates it; ≥ and ≤ were set here for values at or beyond the usual limits of such assays
HLA-B*15:01 [1] = assay: IEDB peptide-MHC binding, purified MHC/direct/fluorescence; filed as Kd, often an IC50 or EC50 that approximates it; ≥ and ≤ were set here for values at or beyond the usual limits of such assays; conditions: source organism: Mycobacterium tuberculosis
HLA-B*15:17 [2] = assay: as above; conditions: source organism: Mycobacterium tuberculosis
HLA-A*02:01 [3] = assay: as above; conditions: source organism: Mycobacterium tuberculosis
HLA-A*69:01 [4] = assay: as above; conditions: source organism: Mycobacterium tuberculosis
HLA-B*27:05 = assay: as above; conditions: source organism: Mycobacterium tuberculosis
HLA-B*18:01 [5] = assay: as above; conditions: source organism: Mycobacterium tuberculosis
HLA-B*08:01 = assay: as above; conditions: source organism: Mycobacterium tuberculosis str. Haarlem
HLA-B*57:01 [6] = assay: as above; conditions: source organism: Mycobacterium tuberculosis
HLA-B*48:01 = assay: as above; conditions: source organism: Mycobacterium tuberculosis
HLA-B*58:01 = assay: as above; conditions: source organism: Mycobacterium tuberculosis
HLA-B*51:01 [7] = assay: as above; conditions: source organism: Mycobacterium tuberculosis
HLA-A*01:01 = assay: as above; conditions: source organism: Mycobacterium tuberculosis
HLA-B*46:01 [8] = assay: as above; conditions: source organism: Mycobacterium tuberculosis
HLA-B*40:01 = assay: as above; conditions: source organism: Mycobacterium tuberculosis
HLA-B*15:09 = assay: IEDB peptide-MHC binding, purified MHC/competitive/fluorescence; filed as Kd, often an IC50 or EC50 that approximates it; ≥ and ≤ were set here for values at or beyond the usual limits of such assays; conditions: source organism: Mycobacterium leprae
HLA-A*31:01 = assay: as above; conditions: source organism: Mycobacterium leprae
HLA-A*11:01 = assay: as above; conditions: source organism: Mycobacterium leprae
HLA-B*39:01 = assay: as above
HLA-A*03:01 = assay: as above
HLA-A*29:02 = assay: as above
HLA-B*15:01 [9] = assay: as above
HLA-A*26:01 = assay: as above
HLA-A*02:01 [10] = assay: as above
HLA-B*27:03 = assay: as above
HLA-B*18:01 [11] = assay: as above
HLA-A*02:12 = assay: as above
HLA-B*57:01 [12] = assay: as above
HLA-B*51:01 [13] = assay: as above
HLA-B*46:01 [14] = assay: as above
HLA-A*02:03 = assay: as above
HLA-A*24:03 = assay: as above
HLA-A*02:19 = assay: as above
HLA-B*15:17 [15] = assay: as above; conditions: source organism: Vibrio vulnificus
HLA-A*69:01 [16] = assay: as above; conditions: source organism: Vibrio vulnificus
HLA-A*68:02 = assay: as above; conditions: source organism: Vibrio vulnificus
HLA-A*02:16 = assay: as above; conditions: source organism: Vibrio vulnificus
HLA-A*02:11 = assay: as above; conditions: source organism: Vibrio vulnificus
[17] = source organism: Bacillus thuringiensis serovar tochigiensis BGSC 4Y1
[18] = source organism: Cryptosporidium parvum Iowa II
[19] = source organism: Mycobacterium leprae
[20] = source organism: Vibrio vulnificus YJ016
[21] = source organism: Vibrio vulnificus

Sequence: TAYCPLQHW
- IC50 (HLA-B*53:01): 0.0326 µM

Sequence: IYAAISYMI
- Kd (HLA-A*24:02; source organism: Salmonella enterica subsp. enterica serovar Typhi): ≤ 0.0001 µM

Sequence: KYAKFFQNF
- Kd (HLA-C*14:02; [17]): 0.428 µM
- Kd (HLA-A*24:02; [17]): ≤ 0.0001 µM

Sequence: SFYKNLIW
- Kd (HLA-A*24:02; source organism: Influenza A virus (A/swine/Korea/Hongsong2/2004(H1N2))): 0.138 µM

Sequence: SFLHWFHHL
- Kd (HLA-C*15:02): ≥ 20 µM
- Kd (HLA-C*14:02; [18]): 0.111 µM
- Kd (HLA-C*06:02): ≥ 20 µM
- Kd (HLA-A*23:01; [18]): ≤ 0.0001 µM

Sequence: YPACEAIGL
- Kd (HLA-B*15:01 [1]): ≥ 20 µM
- Kd (HLA-B*15:17 [2]): ≥ 20 µM
- Kd (HLA-A*02:01 [3]): ≥ 20 µM
- Kd (HLA-A*69:01 [4]): 0.0905 µM
- Kd (HLA-B*27:05): ≥ 20 µM
- Kd (HLA-B*18:01 [5]): 0.166 µM
- Kd (HLA-B*08:01): ≥ 20 µM
- Kd (HLA-B*57:01 [6]): ≥ 20 µM
- Kd (HLA-B*48:01): ≥ 20 µM
- Kd (HLA-B*58:01): ≥ 20 µM
- Kd (HLA-B*51:01 [7]): ≥ 20 µM
- Kd (HLA-A*01:01): ≥ 20 µM
- Kd (HLA-B*46:01 [8]): ≥ 20 µM
- Kd (HLA-B*40:01): ≥ 20 µM
- Kd (HLA-B*15:09): 0.526 µM
- Kd (HLA-A*31:01): ≥ 20 µM
- Kd (HLA-A*11:01): 0.854 µM
- Kd (HLA-B*39:01; [19]): 0.031 µM
- Kd (HLA-A*03:01; [19]): ≥ 20 µM

Sequence: LTDEQKNAV
- Kd (HLA-A*29:02; [20]): ≥ 20 µM
- Kd (HLA-B*15:01 [9]; [20]): ≥ 20 µM
- Kd (HLA-A*26:01; [20]): ≥ 20 µM
- Kd (HLA-A*02:01 [10]; [20]): ≥ 20 µM
- Kd (HLA-B*27:03; [20]): ≥ 20 µM
- Kd (HLA-A*23:01; [20]): ≥ 20 µM
- Kd (HLA-B*18:01 [11]; [20]): ≥ 20 µM
- Kd (HLA-A*02:12; [20]): 0.856 µM
- Kd (HLA-B*39:01; [20]): ≥ 20 µM
- Kd (HLA-B*57:01 [12]; [20]): ≥ 20 µM
- Kd (HLA-B*51:01 [13]; [20]): ≥ 20 µM
- Kd (HLA-B*46:01 [14]; [20]): ≥ 20 µM
- Kd (HLA-A*02:03; [20]): ≥ 20 µM
- Kd (HLA-A*24:03; [20]): ≥ 20 µM
- Kd (HLA-A*03:01; [20]): ≥ 20 µM
- Kd (HLA-A*02:19; [20]): ≥ 20 µM

Sequence: DEWECTRDD
- Kd (HLA-A*29:02; [21]): ≥ 20 µM
- Kd (HLA-B*15:01 [9]; [21]): ≥ 20 µM
- Kd (HLA-B*15:17 [15]): ≥ 20 µM
- Kd (HLA-A*26:01; [21]): ≥ 20 µM
- Kd (HLA-A*02:01 [10]; [21]): ≥ 20 µM
- Kd (HLA-A*69:01 [16]): ≥ 20 µM
- Kd (HLA-B*27:03; [21]): ≥ 20 µM
- Kd (HLA-A*23:01; [21]): ≥ 20 µM
- Kd (HLA-B*18:01 [11]; [21]): 0.0594 µM
- Kd (HLA-A*02:12; [21]): ≥ 20 µM
- Kd (HLA-B*39:01; [21]): ≥ 20 µM
- Kd (HLA-B*57:01 [12]; [21]): ≥ 20 µM
- Kd (HLA-A*68:02): ≥ 20 µM
- Kd (HLA-B*51:01 [13]; [21]): ≥ 20 µM
- Kd (HLA-B*46:01 [14]; [21]): ≥ 20 µM
- Kd (HLA-A*02:03; [21]): ≥ 20 µM
- Kd (HLA-A*02:16): ≥ 20 µM
- Kd (HLA-A*24:03; [21]): ≥ 20 µM
- Kd (HLA-A*02:11): ≥ 20 µM
- Kd (HLA-A*03:01; [21]): ≥ 20 µM
- Kd (HLA-A*02:19; [21]): ≥ 20 µM
